Measured values as given in the supplement of paper PMC9170038.

Test system: MS2 coat protein
Assay: apparent KD of MS2 coat protein; designed switch direction (-1 OFF switch, 1 ON switch): -1; higher = weaker reporter binding
Procedure, shortened: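 Designed RNA switches sharing common flanks were transcribed on Illumina chips by stalled E. coli RNA polymerase. They were titrated with SNAP-549-labelled MS2 coat protein, from 0.7 or 1.5 nM doubling to 3 µM, in Tris-HCl pH 7.5 buffer with KCl, MgCl2, BSA, DTT, tRNA and Tween-20. Titrations ran without input, with 200 uM small-molecule ligand, or with an oligonucleotide input. The apparent KD of each design is the median over its clusters, after curve-fitting of normalised cluster fluorescence.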

[1] = Eterna round: R95, input ligand: FMN 200 uM
[2] = Eterna round: R95, input ligand: microRNA oligo, concentration not stated
[3] = Eterna round: R95, input ligand: none
[4] = input ligand: microRNA oligo, concentration not stated

Sequence: CUCCUCGUGGCGCCUAAACACAUGAGGAUCACCCAUGUACAGGCUUUUUGCCGUCUUAUAAUAAAACCGAGGAUACG [Cezabi] (puzzle: Sensor v3, turn-off variant 1)
- apparent KD of MS2 coat protein [1]: 0.0191 µM
- apparent KD of MS2 coat protein [2]: 0.0639 µM
- apparent KD of MS2 coat protein [3]: 0.0212 µM

Sequence: AAAACUGCCCAUGACCGCAAGCUUUUUGCUUGUCUUACCACAUGAGGAUCACCCAUGUGUCAUGGGCUCCUUAUAAA [Tisoanor] (puzzle: Sensor v3, turn-off variant 2)
- apparent KD of MS2 coat protein [1]: 0.0127 µM
- apparent KD of MS2 coat protein [2]: 0.0108 µM
- apparent KD of MS2 coat protein [3]: 0.0113 µM

Sequence: UCAAGUAUGUAGGAUAUCGAUGUCCUUGGACAUCGAGAAGGACGUACAUGAGGAUCACCCAUGUAACUUGCAUG [Exclusion 6 - B - 10:e] (puzzle: Exclusion 6)
- apparent KD of MS2 coat protein [1]: 0.103 µM
- apparent KD of MS2 coat protein [2]: 0.138 µM
- apparent KD of MS2 coat protein [3]: 0.0945 µM

Sequence: GAGAAAGCAAGCAAGUGAAACAUGAGGAUCACCCAUGUCCUCAUUUGCUCGUCUUAUAAGCUAUGCGAAAGCAUAGC [Mat - Sensor v3 - turn-off var 1 - Eli Mod - D50] (puzzle: Sensor v3, turn-off variant 1)
- apparent KD of MS2 coat protein [1]: 0.0123 µM
- apparent KD of MS2 coat protein [2]: 0.101 µM
- apparent KD of MS2 coat protein [3]: 0.0113 µM

Sequence: ACAAGCUUCGAUAUCCUUAACAUGAGGAUCACCCAUGUUCGUCUUAUGAUGGUCUGAUCCCUGAGGAUCGGACCGUU [JL-sv1-2.09 Brourd Mod] (puzzle: Sensor v3, turn-off variant 1)
- apparent KD of MS2 coat protein [1]: 0.0409 µM
- apparent KD of MS2 coat protein [2]: 0.0623 µM
- apparent KD of MS2 coat protein [3]: 0.0404 µM

Sequence: UAUUAACAAGCUAGAUCCCACAUGAGGAUCACCCAUGUGCUCGUCUUAUAAGGUACUGUGACGAAAGUCACGGUACC [Sensor 3, v1 - 78] (puzzle: Sensor v3, turn-off variant 1)
- apparent KD of MS2 coat protein [1]: 0.0378 µM
- apparent KD of MS2 coat protein [2]: 0.188 µM
- apparent KD of MS2 coat protein [3]: 0.0323 µM

Sequence: UACAUGAGGAUCACCCAUGUUUUGUCGUGUAUGGUAUUUAUCUAGGAUAUCAAGUUAUUUAGUUAUGAGAAGGAGAAUAUUAAU [JMF's solution 35] (Eterna round: R96, puzzle: Exclusion NG 3)
- apparent KD of MS2 coat protein (input ligand: FMN 200 uM): 0.0315 µM
- apparent KD of MS2 coat protein [4]: 0.0316 µM
- apparent KD of MS2 coat protein (input ligand: none): 0.0404 µM

Sequence: AUCUUGUCAGGAUAUCUGACAAGUGACGAAAGUCACAGUUCAGAGAAGGUACAUGAGGAUCACCCAUGUAGAAC [Ex4-3: 40] (puzzle: Exclusion 4)
- apparent KD of MS2 coat protein [2]: 0.0191 µM

Sequence: AAUUAGCAAGCGAGAUCCCACAUGAGGAUCACCCAUGUGCUCGUCUUAUAUAAGGUACUGUACAAAAGUACGGUACC [Mat - Sensor, turn-off var - Eli Mod - D32] (Eterna round: R97, puzzle: Sensor, turn-off variant 1)
- apparent KD of MS2 coat protein (input ligand: FMN 200 uM): 0.0145 µM
- apparent KD of MS2 coat protein (input ligand: none): 0.0141 µM

Sequence: AAGAAACAUGAGGAUCACCCAUGUGAGGAUAUGUAAAAUAAAAUAAAAUAAAGAAUAAACAGAAGGCACAAAGG [Mat - Mod of Hog D24] (puzzle: Exclusion 1)
- apparent KD of MS2 coat protein [1]: 0.0779 µM
- apparent KD of MS2 coat protein [2]: 0.0645 µM
- apparent KD of MS2 coat protein [3]: 0.0497 µM

Sequence: UUUACAAGCUAAAGAUCCCACAUGAGGAUCACCCAUGUUCCUGGCCGUGAGGCUAGGUAAACUUUUGCUCGUCUUAU [JL TOV1 3.67] (Eterna round: R97, puzzle: Sensor, turn-off variant 1)
- apparent KD of MS2 coat protein (input ligand: FMN 200 uM): 0.252 µM
- apparent KD of MS2 coat protein (input ligand: none): 0.322 µM

Sequence: AAUAGCAAGCAAGAUCCUAACAUGAGGAUCACCCAUGUGCUCGUCUUGUAAAGUACUAUCACGAAAGUGAUAGUACA [Sensor 3, v1 - 49] (puzzle: Sensor v3, turn-off variant 1)
- apparent KD of MS2 coat protein [1]: 0.0297 µM
- apparent KD of MS2 coat protein [2]: 0.211 µM
- apparent KD of MS2 coat protein [3]: 0.0319 µM

Sequence: CAGCUGAAUGUGAGGAUAUUACGAGCCUCGGCUCGUGAGAAGGCACAUGAGGAUCACCCAUGUCUCAACAGCUG [BmEx4/2-B2] (Eterna round: R97, puzzle: Brourd's mod of Exclusion 4)
- apparent KD of MS2 coat protein (input ligand: FMN 200 uM): 0.759 µM
- apparent KD of MS2 coat protein (input ligand: none): 0.0362 µM

Sequence: UCAAGUAUGUAGGAUAUCGAUGUCCUUGGACAUCGAGAAGGACGUACAUGAGGAUCACCCAUGUAACUUGCAUG [Exclusion 6 - B - 10:e] (Eterna round: R96, puzzle: Exclusion 6)
- apparent KD of MS2 coat protein [4]: 0.131 µM

Sequence: GCAGCAACUCUAAUCAAUCCAACAUGAGGAUCACCCAUGUCUCAGGAUAUGGUCUGGAUUACAGGCCAGAAGGGAGAAAGCUGC [Eli exng3 - 046] (Eterna round: R96, puzzle: Exclusion NG 3)
- apparent KD of MS2 coat protein (input ligand: FMN 200 uM): 0.00907 µM
- apparent KD of MS2 coat protein [4]: 0.00762 µM
- apparent KD of MS2 coat protein (input ligand: none): 0.0119 µM

Sequence: GUCACAUGGACAUAGGAUCACAUGAGGAUCACCCAUGUGACUAACAAGCUUUUUGUUCGUCUUAUGUCUAUGUGAAG [Stov1/16-B3] (Eterna round: R97, puzzle: Sensor, turn-off variant 1)
- apparent KD of MS2 coat protein (input ligand: FMN 200 uM): 0.0131 µM
- apparent KD of MS2 coat protein (input ligand: none): 0.0169 µM

Sequence: ACCUCACAUGAGGAUCACCCAUGUCAGGAUAUCUAAUAUAGUAGCGUUCCCGACGCUAAGAGAAGGGACAUUAA [EX1 #32] (Eterna round: R97, puzzle: Exclusion 1)
- apparent KD of MS2 coat protein (input ligand: FMN 200 uM): 0.023 µM
- apparent KD of MS2 coat protein (input ligand: none): 0.0139 µM

Sequence: UUUUUGUAUGAAGGAUAUACUUAACAUGAGGAUCACCCAUGUGGUGUUGUGAGUGAGUGAGUUUAGUAGAAGGUCAAUUAUUUU [JMF's solution 24] (Eterna round: R96, puzzle: Exclusion NG 2)
- apparent KD of MS2 coat protein (input ligand: FMN 200 uM): 0.843 µM
- apparent KD of MS2 coat protein [4]: 0.346 µM
- apparent KD of MS2 coat protein (input ligand: none): 0.361 µM

Sequence: CGUGGACAUGAGGAUCACCCAUGUGAGGAUAUCGGCUGGUACGUGUUGGCUGGCAUCUCGAGAAGGCACAUAGU [Exclusion 1 V62] (puzzle: Exclusion 1)
- apparent KD of MS2 coat protein [2]: 0.0408 µM

Sequence: AGAUAGUGCUGAGGAUAUCUUAAUAGAAAGAAUAGAGAAGGCGGACAUGAGGAUCACCCAUGUGAGGUCUUGAGACUACAUGGU [Prohibition 36 - Jieux - Exclusion NG 1] (Eterna round: R96, puzzle: Exclusion NG 1)
- apparent KD of MS2 coat protein (input ligand: FMN 200 uM): 0.366 µM
- apparent KD of MS2 coat protein [4]: 0.0716 µM
- apparent KD of MS2 coat protein (input ligand: none): 0.135 µM

Sequence: AAGAAGAUAGGAUAUACGAGGAGAGGAGAGAAGAGGAGAGGACAUGAGGAUCACCCAUGUAGAAGGAUCAGGAA [JR_Exclu2_Sub062] (puzzle: Exclusion 2)
- apparent KD of MS2 coat protein [1]: 0.0289 µM
- apparent KD of MS2 coat protein [2]: 0.0296 µM
- apparent KD of MS2 coat protein [3]: 0.0285 µM

Sequence: GUCAUCACACAUGGGAUCAACAUGAGGAUCACCCAUGUUGUCAAGUUUUUUGCUCGUCUUAUAAUACGUUUGAUGAG [Mod-Jxd] (Eterna round: R97, puzzle: Sensor, turn-off variant 1)
- apparent KD of MS2 coat protein (input ligand: FMN 200 uM): 0.135 µM
- apparent KD of MS2 coat protein (input ligand: none): 0.154 µM

Sequence: CUGCUCCGUGUAGGAUAUGCAUACUCCCAUUAUGCAGAAGGACAUGAGGAUCACCCAUGUAUGUUAUUAUCAUGUGUUGCGUGC [Design 12] (Eterna round: R96, puzzle: Exclusion NG 1)
- apparent KD of MS2 coat protein [4]: 0.03 µM

Sequence: AAAUACAAGUAAAGAUCCUACAUGAGGAUCACCCAUGUGCUCGUCUUAUAAAGUACUAUCACGAAAGUGAUAGUACA [Sensor 3, v1 - 20] (puzzle: Sensor v3, turn-off variant 1)
- apparent KD of MS2 coat protein [1]: 0.0886 µM
- apparent KD of MS2 coat protein [2]: 0.0139 µM
- apparent KD of MS2 coat protein [3]: 0.112 µM

Sequence: GAUUAUGCGAGCUUUAGGGACAUGAGGAUCACCCAUGUUCGUCUUAUUGGUCUAGGUGCACUGACAUACCUAAAUCU [JMF 91] (puzzle: Sensor v3, turn-off variant 1)
- apparent KD of MS2 coat protein [1]: 0.0203 µM
- apparent KD of MS2 coat protein [2]: 0.0349 µM
- apparent KD of MS2 coat protein [3]: 0.0205 µM
